The test concerns the target miniHA (A/Brisbane/59/2007) (influenza A virus H1N1), A8C8J4. The test is described as follows: FACS. As to conditions: remark: other sources report otherwise.

B1: CR6261 (antibody, V domains shown)
VH: EVQLVESGAEVKKPGSSVKVSCKASGGPFRSYAISWVRQAPGQGPEWMGGIIPIFGTTKYAPKFQGRVTITADDFAGTVYMELSSLRSEDTAMYYCAKHMGYQVRETMDVWGKGTTVTVSS
VL: QSVLTQPPSVSAAPGQKVTISCSGSSSNIGNDYVSWYQQLPGTAPKLLIYDNNKRPSGIPDRFSGSKSGTSATLGITGLQTGDEANYYCATWDRRPTAYVVFGGGTKLTVLG
The molecule B1 came in with a % positive cells of 1 to 3%.

(Values after patent US20140357845A1.)
